Assay results taken from patent US20240026407A1, “MODIFICATION OF SAPONINS” (GLAXOSMITHKLINE BIOLOGICALS SA, priority 2020, published 2024).

B1: 32 (protein)
chain: MSIRLTDKASVPAVVAEMTLEEKARLVTGEFPFTTAGIKRLGIPPMRPLDGHTGINMGQLRSDMASKTLANKSVDELGEMSGPAISGFGTVITNAKDPAKRAKMAPSIQKLVQEVLDKVDELMPDGMYPGCFPPGIMQGSTWNPEVIEKEGSAVGKEMDAYKVDVCLGPNVNIHRDPLNGRLFEGYSEDPYVTATLAPYYIRGMQAEGVAADAKHFAANNQETHRQEIDERIPLRALYEIYLPGFKAAVQQGKVKTLMSAYNKINGTACALNHWLLTDVLRGEWGFEGFVVSDWGAVYDQVDAINAGNDLEMPGPLTFDKIVAAVKDGRIDEKTLDQRVANYLNVLVELPVMKGRKNAHIDREYSRKAAYDVAAEGSILLKNEGALPLNEGAKISLIGEHAKDYIICGKGSAFIDTDQATNLYDCAVETLGADKVEYGDVSADSDAAIIVVSVDGQEGSDRADLLLAPGDDQMILDAAKKAHANGKKAIVILNVTGPVEMEGWLDQVDAVLCVWLPGMEGGRATLDILTGKVNPSGKLTLTFPKHYYDCPTYGNFPGDGDEVWYGEGIYVGYRYYDKKHVEPLYPFGYGLSYTTFELSDIAIDRDVMDMDKGETVNVSVKVTNTGKVAGKEVVQVYISDEVSTLSKPLKELKGFQKVALQPGESKVVTIAIGKDQLASYDPAAKAWGSEPGYYQALVGTSSRDIAGAVRFKAVGYNPFGYGVNCSIGKIMANPAVVEAMKKYIPAHLLSDESMSSELTYFPEAKLQKIWNEKFSLAFKDKSETEKQAILDAMCAEIAKIEVI
modifications: uncultured Clostridium sp.
B2: 370 (protein, listed as Rhizoctonia solani)
chain: MAPRPFKPLDVEDVISKLSLNEKTRLLAGIDNWHTYPVPRLGVPSLRFTDGPNGARGTKFFEGVPAACFPAATGLGSSWDPEFIQKVGQAIGRDCKDKGCHVLLGPTINIQRSPLGGRGFESYSEDPLLSGTLARAFIKGVQSEGVSATIKHYVTNDSEFERMSMSSELSTRALREIYLRPFELACRDPETAPWAVMTAYNRVNGLHASENKYLLDSVLRKQWGWEGMIMSDWYGTYSADASIKAGLDLEMPGPPTWRADALQRCVVAQKIRVPEIDARVREVLKLINRVAVSGIPENADETGEPKPETIDLLRQAAAHANVLLKNSESLLPISAKDVASIAVIGPNADSPVFSGGGSANLRPYKHTTALEGIAAALQDAGNKVEVQHTIGAHAHKEAPLLGVKHLKTKAGEPGYDIEWFNEDPVQNPDAKRVHYTHGTTSFAFFNDNLPGDDVLHQECWATMTAIFTPEVTGKYEFGAAATGLVDVYVDGKKIIDNSSNPVPGHVFFMTGTVEVLNTVELTAGKPAEIKLQFASPVAARTKGFTQIGAGSLSLEGRGGCRWGGGRTFEDDQGIKEAVDLAKKVDKVVLVVGLNNDWESEGYDRDNMELPRATNRLVSAVLEVNKNTAVVIISGTPVAMPWAESASTIVQSFYSGGEAGNGLADVLFGKVNPSSRLPLTFPVRDEDTPSHLNFPGQNGKVLYAEGVFVGYRHYLTYKKKVLFPFGYGLSYTQFEHSDLKLSGEIGKDSTVKVSVTVKNTGKVAGRDVVQIYVRDLVSRLDRPVKELKGFAKSSLLEPGKSETVTITLDKYAFGYFDDWAGEGRDGEGLWVAEAGDFEIVAASTSEDVGISAGISLKQSFEWL
B3: 35 (protein, listed as Verrucomicrobia bacterium)
chain: MSEPDVENRINGLLKQMSLEEKTSLLHGNSKFNTAGIKRLGIPRLHLSDGPHGVRRETEEHSWGPVGWEDDYVTYLPTGSALASTWNPALGRLFGETLGAEARHRNKDVILGPGINIVRTPVCGRNFEYFGEDPYHVGKMAAEVVRGIQNNDVAACVKHYALNNQEWNRGWVNAIVDERTLREIYLPAFEETVRAGALTFMGAYNRFRGQWCCENKYLVNDILKGEWGFDGVYLSDWGGVHSTRDSALNGLDLEMGTSDNYDEFFFARPLREAVEGGEIPESVVDDKVRRILRVMARIGALDPATRKTGARNTAAHQKAVRAIADEAMVLLKNDGVLPLDIHKTLKLAVIGENADKKHADQGGSSAIRALYEITPLEGLKRRGGDMVKITYVQGYRDTGDAAAFEPIGEPYVQTVDPKAGVRCWKVEYFNNRDLHMPPVTVRYEKSVDFDWQERSPAPNVSEDNFSARMTAEIKPTASGTHHIGLTSDDGSRLKIDGKVVIDHWGDHGEEQKDARVELVAGQTYRFEVEYYDSGKGAMLKLGWVTPDSSAADPEVVFAAALEAAREADAVLVFAGQNHRYDTEGVDRRDIRLHGRQNDLIEAVAAANPRTAVFIISGSAVEMPWIDKVPCVVQAWYAGMEVGNAAAGIVFGDVNPSGKLPITFPKRLEDVPAHSIGQYNDQDCEYREGLLVGYRHFDTRNAEPLFPFGHGLSYTKFTYGNLKVDPATLEVRVSVKNTGARKGKEVVQLYVHDVQSRLPRPVKELKGFEKVELAPGETKEVAFRLDERALAFYDADANRWVVEPGDFDILVGSSSRDIRLKGRLAYAGRKKGPL
B4: 41 (protein, listed as Ardenticatena maritima)
chain: MKGARMQDRVETLLQSLTLDEKIKLLAGADTWHTHAIPRLGIPALKVTDGPNGVRGTQKDTRSQTSASFPVGTAMGATWNPDLVREIGEALAEEVKTKGAHVLLGPTVNMHRHPLAGRNFECFAEDPYLMARMAVAYIQGVQSQGVGACIKHYVCNDQEFERFSISAEVDERTLREIYLPPFKAAVQEAGVWTLMTAYNRVNGVYASENSHLFDILKDEWGFDGLALSDWYGTYSDRVPLERLDLEMPGPGRWMAPEKVRAALERGEITEADIDDKVRRLLRTLERVGAFEDSAPKEERSVDNPRHHEIIRRAGREAIVLLKNEDNVLPLDASRFPRLAVIGRPATEVSFQGGGSSEVNPHYVVQPLDAMRERYGEAFQMTYALGPAFYRNFPLLDTRGLRAEDGTPGKVTVRQYDNTELEGEPSKVFLAEGTQLAWFGEQISEFDLRSFSLTMSGTWTPPVSGTYTFSMATVGRGRFEFDGKTLLDWWEYIPEEQPQNFDGMVSVPWRQEEVTLELEAGREYPFRVDFAVVPGGRWRTIRLGVLPPQPADPIGEAVALAREADAAVVFVGLTPEWESEGSDRESMDLPGEQNELVARVAEANPNTIVIVNAGSPVHMPWLDKVKAVLQVWYLGQEMGNAITDVLFGEADPGGRLPTTFPKRLQDSPAYINYPGENGRVYYGERLYVGYRYYDKKEIEPLFPFGHGLSYTTFSYDALELAADQVRVGEGVDVHVTITNQGARRGQEVVQVYLHDVESSLPRPPKELKGFAKVTLEPGETRTVTIHLRPDAFAFYDDKRGAWVVEPGAFEVLVGRSAADIRLRARLDIVDKTTEALEAGNVLAG
B5: 312 (protein, listed as Thermotoga neapolitana)
chain: MEKVNEILSQLTLEEKVKLVVGVGLPGLFGNPHSRVAGAAGETHPVPRVGLPAFVLADGPAGLRINPTRENDENTYYTTAFPVEIMLASTWNRELLEEVGKAMGEEVREYGVDVLLAPAMNIHRNPLCGRNFEYYSEDPVLSGEMASSFVKGVQSQGVGACIKHFVANNQETNRMVVDTIVSERALREIYLRGFEIAVKKSKPWSVMSAYNKLNGKYCSQNEWLLKKVLREEWGFEGFVMSDWYAGDNPVEQLKAGNDLIMPGKAYQVNTERRDEIEEIMEALKEGKLSEEVLDECVRNILKVLVNAPSFKNYRYSNKPDLEKHAKVAYEAGAEGVVLLRNEEALPLSENSKIALFGTGQIETIKGGTGSGDTHPRYAISILEGIKERGLNFDEELAKTYEDYIKKMRETEEYKPRRDSWGTIIKPKLPENFLSEKEIHKLAKKNDVAVIVISRISGEGYDRKPVKGDFYLSDDETDLIKTVSREFHEQGKKVIVLLNIGSPVEVVSWRDLVDGILLVWQAGQETGRIVADVLTGRINPSGKLPTTFPRDYSDVPSWTFPGEPKDNPQKVVYEEDIYVGYRYYDTFGVEPAYEFGYGLSYTTFEYSDLNVSFDGETLRVQYRIENTGGRAGKEVSQVYIKAPKGKIDKPFQELKAFHKTRLLNPGESEEVVLEIPVRDLASFNGEEWVVEAGEYEVRVGASSRNIKLKGTFSVGEERRFKP

What was measured:
[1] = Experiment 4-1: screening of glucosidases for deglycosylation with purified QS-18 (0.04 mg/ml) at pH 7.5 and room temperature; assay type: biochemical, Quillaja saponaria; settings: pH 7.5, room temperature, 20 h, clarified E. coli lysate, QS-18 2150 to QS-21 1988 by LCMS/MS
Method: Nucleotide sequences were sub-cloned into pET24b+ for expression. 10 uL of E. coli cells (One Shot® BL21(DE3) chemically competent E. coli) were transferred to each well of a 96 well PCR plate (prechilled on ice). 10 uL autoclaved water was added to the DNA, resuspended by pipetting, and 1 uL of plasmid DNA (15-30 ng) was transferred to the competent cells. Immediately after addition, the resulting mixture was mixed by pipetting. Cells were heat shocked by placing the plate in a thermal cycler at 42° C. for 30 seconds then transferred directly to an ice bath for 2 min. 100 uL sterile Lysogeny Broth (LB) medium was added to each well containing transformed cells. The content of each plate was transferred into a 96-deep well plate pre-aliquoted with 400 uL LB and the plate was incubated at 37° C. with shaking and 85% humidity for 1 hour. After outgrowth, 500 uL of sterile LB containing 100 ug/mL kanamycin was added to the plates containing cells and plates incubated at 37° C. with shaking overnight (18 hours) with humidity control (85%).
1000 mLs of Overnight Express Media was supplemented with 1 mL kanamycin 50 mg/mL and 20 mL of 50% v/v glycerol added (50 ug/mL kanamycin final and 1% glycerol). 96-Well Assay Block 2 mL plates were aliquoted with 380 uL of media per well. Pre-inoculum (20 uL) from transformation plates was added. The plates were sealed appropriately and incubated at 37° C. at 300 with shaking for 2 h. After 2 h the temperature was lowered to 20° C. and incubation continued for 20 h.
The liquid cultures were centrifuged for 10 minutes at 4° C. The supernatant was discarded, plates blotted on an absorbent material to remove residue and the plates frozen at −80° C.
Lysis buffer was prepared according to the following protocol: • 1. Polymyxin B sulphate (0.5 mg/mL) was suspended in 100 mM potassium phosphate pH 7.5 • 2. The mixture was sonicated until polymyxin B sulphate had dissolved • 3. Lysozyme (1 mg/mL) and benzonase (0.1 uL/mL lysis buffer) were added
2 copies of each cell pellet plate were removed from −80 degC freezer and allowed to thaw. 200 uL of lysis buffer was added to each well of one copy of the cell pellet plates. Plates were shaken at room temperature for 10 mins. 190 uL of cell pellet/lysis buffer was transferred to a corresponding fresh cell pellet plate. These plates were incubated at room temperature with shaking for 2 hours. Lysate was clarified by centrifugation (10 min, 4 degC).
QS-18 was obtained by analogous methods to Example 3, collecting a QS-18 containing phenyl fraction following phenyl treatment (presence of m/z corresponding to key components was confirmed by MS and the phenyl fraction then used without further treatment). QS-18 solution was prepared by diluting aqueous QS-18 (ca 1 mg/mL) with 100 mM potassium phosphate pH 7.5 to 0.2 mg/ml. 40 uL clarified lysate was transferred into fresh 96 well PCR plates. 10 uL QS-18 solution added to each well of lysate to a final concentration of 0.04 mg/ml. Incubated at room temperature with shaking for 20 h. Quenched with 50 uL MeCN and shaken at room temperature for 10 mins. Samples were analysed by LC-MS/MS using a Waters Acquity H class coupled to a Waters Xevo Tandem Quadrupole (TQD) Mass Spectrometer.
Enzyme activity was calculated as: […]
Candidate enzymes with % conversion >0.72%, i.e. >3 S.D. above negative control, were considered to be positive hits and are listed below in Table 7. Sample results are shown in FIG. 10 for a QS-21 standard, FIG. 11 for negative control and FIG. 12 for treatment with the glucosidase of SEQ ID No. 262.

[2] = Experiment 4-2: screening of glucosidases for deglycosylation with purified QS-18 (1 mg/ml) at pH 6 and 30 deg C; assay type: biochemical, Quillaja saponaria; settings: pH 6, 30 degC, 18 hrs, clarified lysate, LCMS/MS
Method: Lysates were prepared in an identical manner to Experiment 4-1 above, except the lysis buffer was prepared in 100 mM potassium phosphate buffer pH 6. QS-18 solution was prepared by dissolving QS-18 in 100 mM potassium phosphate buffer pH 6 (2 mg/mL).
12 uL clarified lysate was transferred into fresh 96 well PCR plates. 12 uL QS-18 solution was added (1 mg/ml final concentration), plates sealed and incubated overnight (30° C.) for 18 hrs. After quenching with 25 uL MeCN and shaking for 10 mins (RT), samples were analysed using the LC-MS/MS protocol described in Experiment 4-1 and enzyme activity determined in an analogous manner.

Molecule	Expt 4-1 % conv [1]	Expt 4-2 % conv [2]
B1	2.2%	0.6%
B2	1.1%	0.5%
B3	1.2%	0.4%
B4	4.0%	0.7%
B5	1.6%	0.4%
